Residue numbers refer to the chain shown, from its start.
B1: G001_gp1_V08_VRC01c_2021-0062 (antibody, V domains shown)
VH: QVQLVQSGAEVKKPGASVKVSCKASGYTFTGYYIHWVRQAPGQGLEWMGWINPNSGGTNYAQEFQDWVTMTRDTSISTAYMELSRLSSDDTAVFYCARAKYYDAWSGYYFDFWGQGTLVTVSS
VL: DIQMTQAPSTLSASVGDRVTITCRASETTSSWVAWYQQKPGKAPKVLIYDASSLQSGVPSRFSGSGSGTEFTLTISSLQPDDFATYYCQQYNTFGGGTKVEIK
B2: G001_gp1_V08_VRC01c_2021-0060 (antibody, V domains shown)
VH: QVQLVQSGAEAKKPGASVKVSCKASGYTFTGYYMHWVRQAPGQGLEWMGWINPNSGGTNYAQKFQDWVTMTRDTSISTAYMELNRLRSDDTAVYYCATTGGTAVTAAHRWYFDLWGRGTLVTVSS
VL: EIVLTQSPGTLSLSPGDRATLSCRASQSVSSSYLAWYQQKPGQAPRLLIYGAASRATGIPDRFSGSGSETDFTLTISRLEPEDSAVYYCQHYEGFGQGTRLEIK
B3: G001_gp1_V08_VRC01c_2021-0055 (antibody, V domains shown)
VH: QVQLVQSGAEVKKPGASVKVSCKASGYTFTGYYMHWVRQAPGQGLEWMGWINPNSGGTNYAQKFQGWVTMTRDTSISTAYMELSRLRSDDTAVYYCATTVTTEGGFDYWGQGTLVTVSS
VL: QSALTQPPSASGSPGQSVTISCTGTSSDVGGYNYVSWYQQHPGKAPKLMIYEVSKRPSGVPDRFSGSKSGNTASLTVSGLQAEDEADYYCSSYEVFGTGTKVTVL
B4: G001_gp1_V08_VRC01c_2021-0056 (antibody, V domains shown)
VH: QVQLVQSGAEVKKPGASVTVSCKASGYTFTGYYMHWVRQAPGQGLEWMGWINPNSGGTNYAQKFQDWVTMTRDTSISTAYMELSRLRSDDTAVYYCATALGGSPGRIWSMDVWGQGTTVTVSS
VL: B3 VL with P8A, A10V, V18I, Y32S, M49L, E52D, K55N, P61S, D62S, V77I
B5: G001_gp1_V08_VRC01c_158 (antibody, V domains shown)
VH: QVQLVQSGAEVKKPGASVKVSCKASGYTFTDYYMHWVRQAPGQGLEWMGWLNPNSGGTNYAQKFQDWVTMTRDTSIRTAYLELSRLKLDDTAIYYCARRIDYLDAFDIWGQGTMVTVSS
VL: EIVLTQSPGTLSLSPGERATLSCRASQSVSRRYLAWYQQKTGQAPRLLIYGASSRATGIPDRFSGSGSGTDFTLTISRLEPEDFAVYYCQQYEMFGQGTKVEIK
B6: G001_gp1_V08_VRC01c_2021-0073 (antibody, V domains shown)
VH: QVQLVQSGAEVKKPGASVKVSCKASGYTFTGYYMHWVRQAPGQGLEWMGWINPNSGGTNYAQKFQDWVTMTRDTSISTAYMELRRLRSDDTAVYYCARGMSAKWFDSWGQGTLVTVSS
VL: B5 VL with V29F, R31N, R32S, L34V, T41P, A44G, M94T, T99I, V101L, K104T
B7: G001_gp1_V08_VRC01c_2021-0057 (antibody, V domains shown)
VH: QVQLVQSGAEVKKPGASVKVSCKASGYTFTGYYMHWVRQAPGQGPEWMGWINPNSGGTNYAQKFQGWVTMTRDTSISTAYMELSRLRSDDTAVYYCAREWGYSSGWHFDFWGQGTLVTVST
VL: B5 VL with T10S, V29G, R31S, T41P, S54N, D61N, T73V, M94S, Q97P, E102D
B8: G001_gp1_V08_VRC01c_147 (antibody, V domains shown)
VH: QVQLVQSGAEVKQPGASVKVSCKASGYTFTGYYIHWIRQAPGQGLEWMGWINPKSGGTNYARNFQGRVTMTRDTSISTSYLLLSRLRSDDTAVYYCFRGAEGWLLKYWGQGTLVTVSS
VL: DIQMTQSPSSLSASVGDRVTITCQASQDISNYLNWYQQKPGKAPKLLIYDASNLETGVPSRFSGSGSGTDFTFTISSLQPEDIATYFCQHYEFFGPGTKVDIK
B9: G001_gp1_V08_VRC01c_2021-0053 (antibody, V domains shown)
VH: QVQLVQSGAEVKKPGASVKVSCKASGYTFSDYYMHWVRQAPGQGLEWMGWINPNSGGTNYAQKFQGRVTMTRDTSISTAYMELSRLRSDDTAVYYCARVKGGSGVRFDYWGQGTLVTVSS
VL: B8 VL with P59T, F87Y, H90Q, E92V, F93T, P96G, D101E
B10: G001_gp1_V08_VRC01c_2021-0052 (antibody, V domains shown)
VH: QVQLVQSGAEVKKPGASVKVSCKASGHTFSGYYMHWVRQAPGQGLEWMGWINPNSGGTNYAQKFQGRVTMTRDTSISTAYMELSRLRTYDTAVYYCARAYSSGWRFGWGQGTMVTVSS
VL: B8 VL with S30T, N31K, K42Q, D70Y, F87Y, H90Q, E92D, F93N, P96G, D101E
B11: G001_gp1_V08_VRC01c_151 (antibody, V domains shown)
VH: QVQLVQSGAEVKKPGASVKVSCKASGYTFTDYYMHWVRQTPGQGLEWMGWMNPKSGGTNYALQFQGRVTMTRDTSISTAYMELSRLRSDDTAIYYCATKAYTNRAFDIWGQGTMVTVSS
VL: EIVLTQSPGTLSLSPGERATLSCRASQSVNSNSLAWYQQKPGQAPRLLIFAAYTRATGIPDRFSGSGSGTDFTLTISRLEPEDFAVYYCQQYDTFGQGTKVEIK
B12: G001_gp1_V08_VRC01c_2021-0072 (antibody, V domains shown)
VH: QVQLVQSGAEVKKPGASVKISCKASGYTFSGYYMHWVRQAPGQGLEWMGWINPNSGGTNYAQKFQDWVTMTRDTSISTVYMELSRLRSDDTAVYYCAREWCSGGTCYSGPTFDFWGQGTLVTVSS
VL: B5 VL with R31S, R32N, T41S, Q91H, M94T
B13: G001_gp1_V08_VRC01c_2021-0059 (antibody, V domains shown)
VH: QAQLMQSGAEVKKPGASVKVSCKASGYTFTDYYMHWVRQAPGQGLEWMGWINPNSGGTNYAQKFQGWVTMTRDTSISTAFMELSRLRSDDTAVYFCATTNRYTSTWLFDYWGQGTLVTVSS
VL: B5 VL with R31S, R32S, T41P, S54N, M94S, V101L
B14: G001_gp1_V08_VRC01c_2021-0063 (antibody, V domains shown)
VH: QVHLVQSGAEVKKPGASVKVSCKASGYTFTGYYMHWVRQAPGQGLEWMGWINPNSGGTNYAQKFQGRVTVTRDTSISTAYMELSRLRSDDTAVYYCATQTHSSGWFVGNNWHFDLWGPGTLVTVSS
VL: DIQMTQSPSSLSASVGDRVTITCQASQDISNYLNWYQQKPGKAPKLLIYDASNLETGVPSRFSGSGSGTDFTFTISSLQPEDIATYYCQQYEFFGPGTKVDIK
B15: G001_gp1_V08_VRC01c_2021-0065 (antibody, V domains shown)
VH: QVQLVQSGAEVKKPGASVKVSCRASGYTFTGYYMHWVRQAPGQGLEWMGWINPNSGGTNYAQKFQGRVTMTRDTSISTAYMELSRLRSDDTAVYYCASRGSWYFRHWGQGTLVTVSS
VL: DIQMTQSPSSLSASVGDRVTITCQARHDISKYLNWYQQKPGKAPKLLIYDASDLETGVPSRFSGSGSGTDFTFTISSLQPEDIATYYCQQYDSFGGGTRVEIK
B16: G001_gp1_V08_VRC01c_2021-0066 (antibody, V domains shown)
VH: QVQLVQSGAEVKKPGASVKVSCKASGYTFTGYYMHWVRQAPGQGLEWMGWINPNSGGTNYALKFQDWVTMTRDTSISTVYMELSRLRYDDTAVYYCARVNGDYGWNFDLWGRGTPVTVSS
VL: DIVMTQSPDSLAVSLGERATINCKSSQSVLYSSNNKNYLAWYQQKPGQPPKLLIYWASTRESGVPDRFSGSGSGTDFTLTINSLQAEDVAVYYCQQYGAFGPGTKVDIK
B17: G001_gp1_V08_VRC01c_149 (antibody, V domains shown)
VH: QVQLVQSGAEVKKPGASVKVSCKTSGYTFTDYYMHWVRQAPGQGLEWMGWINPNSGGTNYAQKFQGRVTMTRDTSIRTVYMELSWLRSDDTAVFYCARHYRSSGWDFDYWGQGTLVTVSS
VL: DIVLTQSPDSLTVSLGERATINCKSSPSGLYSSNNKNYLTWYQQKPGQPPKLLIYWASTRESGVPDRFSGSGSGTDFTLTISSLQAEDVAVYYCQQYETFGGGTKVEIK
B18: G001_gp1_V08_VRC01c_153 (antibody, V domains shown)
VH: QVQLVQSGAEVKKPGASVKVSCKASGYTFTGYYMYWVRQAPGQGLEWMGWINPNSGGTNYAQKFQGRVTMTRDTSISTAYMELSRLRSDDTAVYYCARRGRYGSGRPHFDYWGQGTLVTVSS
VL: DIQMTQSPSSLSASVGDRVTITCQATQDISNYLNWYQHKPGKAPKLLIYDASTLVTGVPSRFSGSGYGTDFTFTISSLQPEDIATYYCQEYLLFGGGTKVEIK
B19: G001_gp1_V08_VRC01c_2021-0068 (antibody, V domains shown)
VH: QVQLVQSGAEVKKPGASVKVSCKASGYTFTGYYLHWVRQAPGQGLEWMGWINPNSGGTNYAQKFQGWVTMTRTTSISTAYLELSRLRSDDTAVYYCARSVYFDSSGFYYGYWGQGTLVTVSS
VL: DIQMTQSPSTLSASVGDRVTITCRASQSISSWLAWYQQKPGKAPKLLIYKASSLESGVPSRFSGSGSGTEFTLSISSLQPDDFATYYCQQYETFGQGTKVEIK
B20: G001_gp1_V08_VRC01c_2021-0069 (antibody, V domains shown)
VH: QVQLVQSGAEVKKPGASVKVSCKASGYTFTDYYIHWVRQAPGQGLEWMGWINPNSGGTNYAQKFQDWVTMTRDTSVGTAYMELSRLRSDDTAVYYCARGIWSSWHFDVWGRGTLVTVPS
VL: B19 VL with M4V, S31N, W32S, K45N, S53I, S74T, I102V, K103T

Molecular target: eOD-GT8 (engineered outer domain germline-targeting version 8), monomer (HIV-1 gp120 engineered outer domain, …)

Binder | binding result
B1 | binds
B2 | binds
B3 | binds
B4 | binds
B5 | binds
B6 | binds
B7 | binds
B8 | binds
B9 | binds
B10 | binds
B11 | binds
B12 | binds
B13 | binds
B14 | binds
B15 | binds
B16 | binds
B17 | binds
B18 | binds
B19 | binds
B20 | binds

Reference: PMC12377726 (Proceedings of the National Academy of Sciences of the …, 2025)
